Data taken from the supplement of paper PMC9112550, “Optimization of the antimicrobial peptide Bac7 by deep mutational scanning” (BMC Biology, 2022).

Tested on: Escherichia coli TOP10
Test: shrunken log2 fold change of peptide-encoding DNA abundance (4.5 h post-induction vs induction); higher = less antimicrobial activity (less host growth inhibition)
Conditions: time post-induction: 4.5 h; library: site-saturation at positions 5, 18, 19, 20
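Note: peptides expressed intracellularly from a pBAD plasmid library in pooled LB shake-flask culture, induced with 0.3% L-arabinose, DNA abundance read by NGS, three biological replicates, DESeq2 with apeglm shrinkage.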

Sequence | shrunken log2 fold change
RRIRTRPPRLPRPRPRPVSGPRP | -0.0612
RRIRERPPRLPRPRPRPIVWPRP | 0.0693
RRIRHRPPRLPRPRPRPPEFPRP | -0.0433
RRIRLRPPRLPRPRPRPQVIPRP | -0.136
RRIRIRPPRLPRPRPRPCPGPRP | -0.372
RRIRMRPPRLPRPRPRPDESPRP | 2.38
RRIRQRPPRLPRPRPRPVQYPRP | -0.0137
RRIRQRPPRLPRPRPRPRVTPRP | 0.238
RRIRDRPPRLPRPRPRPRPEPRP | 0.538
RRIRGRPPRLPRPRPRPTDYPRP | -0.00915
RRIRKRPPRLPRPRPRPTPGPRP | 0.683
RRIRDRPPRLPRPRPRPKHDPRP | -0.16
RRIRIRPPRLPRPRPRPTYTPRP | -0.405
RRIRSRPPRLPRPRPRPDLQPRP | -0.193
RRIRLRPPRLPRPRPRPMDEPRP | -0.119
RRIRRRPPRLPRPRPRPQIYPRP | -0.1
RRIRQRPPRLPRPRPRPDVIPRP | -0.011
RRIRYRPPRLPRPRPRPLAQPRP | -0.17
RRIRRRPPRLPRPRPRPPRTPRP | 1.16
RRIRSRPPRLPRPRPRPWQVPRP | 0.00514
RRIRFRPPRLPRPRPRPLYCPRP | -0.937
RRIRARPPRLPRPRPRPNEAPRP | 0.269
RRIRKRPPRLPRPRPRPYYDPRP | -0.204
RRIRERPPRLPRPRPRPYHPPRP | -0.248
RRIRSRPPRLPRPRPRPAHTPRP | -0.379

Sequence | shrunken log2 fold change
RRIRKRPPRLPRPRPRPDNFPRP | -0.0455
RRIRSRPPRLPRPRPRPYFAPRP | -0.645
RRIRRRPPRLPRPRPRPHHNPRP | -0.393
RRIRVRPPRLPRPRPRPRLHPRP | 0.0296
RRIRCRPPRLPRPRPRPRDPPRP | 0.864
RRIRHRPPRLPRPRPRPHRDPRP | -0.263
RRIRERPPRLPRPRPRPLDGPRP | -0.0344
RRIRPRPPRLPRPRPRPDMLPRP | -0.147
RRIRYRPPRLPRPRPRPEYQPRP | -0.00141
RRIRSRPPRLPRPRPRPAQSPRP | 0.234
RRIRSRPPRLPRPRPRPDYWPRP | 0.0977
RRIRMRPPRLPRPRPRPQEDPRP | -0.0231
RRIRRRPPRLPRPRPRPAQPPRP | 0.958
RRIRIRPPRLPRPRPRPCFAPRP | -0.1
RRIRKRPPRLPRPRPRPTNQPRP | 0.289
RRIRWRPPRLPRPRPRPSKIPRP | -0.152
RRIRVRPPRLPRPRPRPKHFPRP | 0.0968
RRIRPRPPRLPRPRPRPVFGPRP | 0.206
RRIRPRPPRLPRPRPRPWPQPRP | 0.0953
RRIRPRPPRLPRPRPRPMRNPRP | 0.905
RRIRERPPRLPRPRPRPDAVPRP | -0.0146
RRIRSRPPRLPRPRPRPRCKPRP | -0.134
RRIRFRPPRLPRPRPRPQSIPRP | 0.0159
RRIRVRPPRLPRPRPRPRWTPRP | -0.142
RRIRSRPPRLPRPRPRPILFPRP | -0.445

Sequence | shrunken log2 fold change
RRIRGRPPRLPRPRPRPGPVPRP | 1.24
RRIRMRPPRLPRPRPRPMYFPRP | 0.178
RRIRRRPPRLPRPRPRPEVLPRP | 0.211
RRIRMRPPRLPRPRPRPCYSPRP | -0.711
RRIRIRPPRLPRPRPRPFMCPRP | -0.103
RRIRWRPPRLPRPRPRPQSGPRP | 0.186
RRIRIRPPRLPRPRPRPFRDPRP | -0.111
RRIRLRPPRLPRPRPRPCISPRP | -0.177
RRIRYRPPRLPRPRPRPAPMPRP | -0.0449
RRIRPRPPRLPRPRPRPLAPPRP | 0.33
RRIRPRPPRLPRPRPRPYEKPRP | -0.0835
RRIRGRPPRLPRPRPRPEGAPRP | 1.49
RRIRCRPPRLPRPRPRPEGEPRP | 3.03
RRIRIRPPRLPRPRPRPYQLPRP | -0.699
RRIRDRPPRLPRPRPRPEIEPRP | 0.522
RRIRSRPPRLPRPRPRPYMEPRP | 2.73
RRIRHRPPRLPRPRPRPASWPRP | 0.305
RRIRERPPRLPRPRPRPEKCPRP | -0.00149
RRIRRRPPRLPRPRPRPFHFPRP | -0.413
RRIRVRPPRLPRPRPRPHSPPRP | -0.0205
RRIRRRPPRLPRPRPRPYRSPRP | -0.0969
RRIRIRPPRLPRPRPRPECAPRP | -0.0969
RRIRCRPPRLPRPRPRPVECPRP | -0.142
RRIRWRPPRLPRPRPRPVNNPRP | 0.018
RRIRRRPPRLPRPRPRPCIMPRP | -0.191

Sequence | shrunken log2 fold change
RRIRDRPPRLPRPRPRPIVCPRP | 0.0446
RRIRKRPPRLPRPRPRPTVHPRP | 0.467
RRIRTRPPRLPRPRPRPAEEPRP | 0.0505
RRIRSRPPRLPRPRPRPFTKPRP | -0.202
RRIRSRPPRLPRPRPRPLTFPRP | 0.182
RRIRVRPPRLPRPRPRPRDSPRP | -0.188
RRIRPRPPRLPRPRPRPCNHPRP | -0.227
RRIRQRPPRLPRPRPRPYHIPRP | 0.0735
RRIRGRPPRLPRPRPRPLELPRP | 0.741
RRIRSRPPRLPRPRPRPMMVPRP | -0.203
RRIRWRPPRLPRPRPRPGKGPRP | -0.0357
RRIRQRPPRLPRPRPRPDFTPRP | -0.134
RRIRSRPPRLPRPRPRPRRLPRP | 0.193
RRIRYRPPRLPRPRPRPIYFPRP | 0.548
RRIRTRPPRLPRPRPRPWPLPRP | 0.0506
RRIRQRPPRLPRPRPRPANYPRP | -0.0497
RRIRTRPPRLPRPRPRPAIDPRP | -0.206
RRIRVRPPRLPRPRPRPGGFPRP | 0.211
RRIRPRPPRLPRPRPRPLNFPRP | -0.139
RRIRSRPPRLPRPRPRPHFWPRP | 0.0758
RRIRQRPPRLPRPRPRPQYHPRP | -0.609
RRIRIRPPRLPRPRPRPHPPPRP | -0.0108
RRIRFRPPRLPRPRPRPSKWPRP | -0.273
RRIRQRPPRLPRPRPRPSRAPRP | 0.19
RRIRIRPPRLPRPRPRPECPPRP | -0.0846

Sequence | shrunken log2 fold change
RRIRVRPPRLPRPRPRPLTFPRP | -0.271
RRIRIRPPRLPRPRPRPCQIPRP | -0.0429
RRIRCRPPRLPRPRPRPMWMPRP | 0.174
RRIRARPPRLPRPRPRPIYDPRP | -0.138
RRIRSRPPRLPRPRPRPMFVPRP | -0.0773
RRIRRRPPRLPRPRPRPVLKPRP | 0.267
RRIRTRPPRLPRPRPRPHGWPRP | -0.0327
RRIRHRPPRLPRPRPRPQSCPRP | -0.0062
RRIRCRPPRLPRPRPRPMTMPRP | -0.27
RRIRERPPRLPRPRPRPPCKPRP | -0.208
RRIRKRPPRLPRPRPRPWGTPRP | 0.341
RRIRIRPPRLPRPRPRPAPRPRP | 0.733
RRIRERPPRLPRPRPRPFAYPRP | 0.155
RRIRPRPPRLPRPRPRPEYDPRP | 0.101
RRIRGRPPRLPRPRPRPYGNPRP | -0.102
RRIRLRPPRLPRPRPRPLHLPRP | -0.21
RRIRTRPPRLPRPRPRPHAGPRP | -0.0835
RRIRARPPRLPRPRPRPPVTPRP | 0.354
RRIRHRPPRLPRPRPRPENPPRP | -0.277
RRIRVRPPRLPRPRPRPNCKPRP | -0.368
RRIRSRPPRLPRPRPRPSIRPRP | -0.41
RRIRWRPPRLPRPRPRPMIFPRP | -0.302
RRIRLRPPRLPRPRPRPVVKPRP | -0.166
RRIRTRPPRLPRPRPRPRIDPRP | -0.0699
RRIRCRPPRLPRPRPRPASTPRP | -0.481
